Test results: patent US20160237157A1 (published 2016)

B1: chimeric LD1 (chLD1) (antibody, V domains shown)
VH: EVQLQQPGAVLVRPGTSVKLSCKASGYTFTNHWMNWVKQRPGQGLEWIGMIHPSDSETTLDQKFKDKATLTVDKSSSTAYMQLNRPTSEDSAVYYCTRGDISLFDYWGQGTTVTVSS
VL: DIQMTQTTSSLSASLGDRVTITCRTSQDISNFLNWYQQKPDGTFKILISYTSRLHSGVPSRFSGSGSGTDYSLTISTLEQEDFATYFCQQGNALPYTFGGGTKLEIE
B2: LD1 (antibody, V domains shown)
VH: B1 VH
VL: B1 VL

Columns and labels:
Test in all cases: SPR
[1] = target: T1, mouse FGFR4-Fc chimeric protein (mouse, UniProt Q03142 17-366)
T1 chain: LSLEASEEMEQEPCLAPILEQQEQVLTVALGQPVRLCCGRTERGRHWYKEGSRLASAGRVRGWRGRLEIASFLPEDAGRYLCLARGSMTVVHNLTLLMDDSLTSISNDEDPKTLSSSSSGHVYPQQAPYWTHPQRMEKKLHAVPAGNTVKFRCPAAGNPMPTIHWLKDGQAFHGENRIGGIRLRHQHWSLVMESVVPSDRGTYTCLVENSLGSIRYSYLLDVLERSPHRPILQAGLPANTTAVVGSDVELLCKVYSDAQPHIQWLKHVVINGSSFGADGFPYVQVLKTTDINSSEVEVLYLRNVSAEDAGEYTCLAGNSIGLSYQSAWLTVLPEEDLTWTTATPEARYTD

[2] = target: human FGFR4-Fc chimeric protein (UniProt P22455 22-369)
Cynomolgus FGFR4 = Cynomolgus FGFR4 (cynomolgus monkey)

Sequence of human FGFR4-Fc chimeric protein (P22455 22-369, change not shown): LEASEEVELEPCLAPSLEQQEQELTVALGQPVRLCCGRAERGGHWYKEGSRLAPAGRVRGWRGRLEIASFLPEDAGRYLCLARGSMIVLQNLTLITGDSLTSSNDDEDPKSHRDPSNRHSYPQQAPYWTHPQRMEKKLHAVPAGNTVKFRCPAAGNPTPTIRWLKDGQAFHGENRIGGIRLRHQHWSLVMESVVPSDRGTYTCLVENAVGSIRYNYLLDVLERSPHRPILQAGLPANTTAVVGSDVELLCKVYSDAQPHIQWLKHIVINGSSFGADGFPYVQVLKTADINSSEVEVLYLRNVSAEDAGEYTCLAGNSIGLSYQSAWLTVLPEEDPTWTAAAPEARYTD

Binder	Kd [1]	Kd [2]	Kd (Cynomolgus FGFR4)
B1	700 pM	700 pM	
B2			800 pM
